Reference: patent publication US20180306789A1 (IMMATICS BIOTECHNOLOGIES, published 2018)

B1: TCR R53P2A9 (TCR, V domains shown)
V domain 1: QTVTQSQPEMSVQEAETVTLSCTYDTSESDYYLFWYKQPPSRQMILVIRQEAYKQQNATENRFSVNFQKAAKSFSLKISDSQLGDAAMYFCAYNSYAGGTSYGKLTFGQGTILTVHP
V domain 2: DAGVTQSPTHLIKTRGQQVTLRCSPISGHKSVSWYQQVLGQGPQFIFQYYEKEERGRGNFPDRFSARQFPNYSSELNVNALLLGDSALYLCASSLDGTSEQYFGPGTRLTVTE
B2: TCR R36P3F9 (TCR, V domains shown)
V domain 1: SQQGEEDPQALSIQEGENATMNCSYKTSINNLQWYRQNSGRGLVHLILIRSNEREKHSGRLRVTLDTSKKSSSLLITASRAADTASYFCATVSNYQLIWGAGTKLIIKP
V domain 2: EAQVTQNPRYLITVTGKKLTVTCSQNMNHEYMSWYRQDPGLGLRQIYYSMNVEVTDKGDVPEGYKVSRKEKRNFPLILESPSPNQTSLYFCASSSTSGGLSGETQYFGPGTRLLVLE
B3: TCR R52P2G11 (TCR, V domains shown)
V domain 1: RGNGKNQVEQSPQSLIILEGKNCTLQCNYTVSPFSNLRWYKQDTGRGPVSLTIMTFSENTKSNGRYTATLDADTKQSSLHITASQLSDSASYICVVSAYGKLQFGAGTQVVVTP
V domain 2: DAGVIQSPRHEVTEMGQEVTLRCKPISGHNSLFWYRQTMMRGLELLIYFNNNVPIDDSGMPEDRFSAKMPNASFSTLKIQPSEPRDSAVYFCASSLGSPDGNQPQHFGDGTRLSILE

These binders were tested against HLA-A*02-presented DCAF4L2-001 on target cells (human) (assay: cell-based or functional assay).

| Binder | EC50 of target peptide titration (IFNγ release) |
| --- | --- |
| B1 | ~11.8 nM |
| B2 | ~3.6 nM |
| B3 | ~8.5 nM |
